In IntAct's records for PubMed 19864458:

B1: MICAL-like protein 1 (Homo sapiens), Q8N3F8 (parent)
chain: MAGPRGALLAWCRRQCEGYRGVEIRDLSSSFRDGLAFCAILHRHRPDLLDFDSLSKDNVFENNRLAFEVAEKELGIPALLDPNDMVSMSVPDCLSIMTYVSQYYNHFCSPGQAGVSPPRKGLAPCSPPSVAPTPVEPEDVAQGEELSSGSLSEQGTGQTPSSTCAACQQHVHLVQRYLADGRLYHRHCFRCRRCSSTLLPGAYENGPEEGTFVCAEHCARLGPGTRSGTRPGPFSQPKQQHQQQLAEDAKDVPGGGPSSSAPAGAEADGPKASPEARPQIPTKPRVPGKLQELASPPAGRPTPAPRKASESTTPAPPTPRPRSSLQQENLVEQAGSSSLVNGRLHELPVPKPRGTPKPSEGTPAPRKDPPWITLVQAEPKKKPAPLPPSSSPGPPSQDSRQVENGGTEEVAQPSPTASLESKPYNPFEEEEEDKEEEAPAAPSLATSPALGHPESTPKSLHPWYGITPTSSPKTKKRPAPRAPSASPLALHASRLSHSEPPSATPSPALSVESLSSESASQTAGAELLEPPAVPKSSSEPAVHAPGTPGNPVSLSTNSSLASSGELVEPRVEQMPQASPGLAPRTRGSSGPQPAKPCSGATPTPLLLVGDRSPVPSPGSSSPQLQVKSSCKENPFNRKPSPAASPATKKATKGSKPVRPPAPGHGFPLIKRKVQADQYIPEEDIHGEMDTIERRLDALEHRGVLLEEKLRGGLNEGREDDMLVDWFKLIHEKHLLVRRESELIYVFKQQNLEQRQADVEYELRCLLNKPEKDWTEEDRAREKVLMQELVTLIEQRNAIINCLDEDRQREEEEDKMLEAMIKKKEFQREAEPEGKKKGKFKTMKMLKLLGNKRDAKSKSPRDKS
partner: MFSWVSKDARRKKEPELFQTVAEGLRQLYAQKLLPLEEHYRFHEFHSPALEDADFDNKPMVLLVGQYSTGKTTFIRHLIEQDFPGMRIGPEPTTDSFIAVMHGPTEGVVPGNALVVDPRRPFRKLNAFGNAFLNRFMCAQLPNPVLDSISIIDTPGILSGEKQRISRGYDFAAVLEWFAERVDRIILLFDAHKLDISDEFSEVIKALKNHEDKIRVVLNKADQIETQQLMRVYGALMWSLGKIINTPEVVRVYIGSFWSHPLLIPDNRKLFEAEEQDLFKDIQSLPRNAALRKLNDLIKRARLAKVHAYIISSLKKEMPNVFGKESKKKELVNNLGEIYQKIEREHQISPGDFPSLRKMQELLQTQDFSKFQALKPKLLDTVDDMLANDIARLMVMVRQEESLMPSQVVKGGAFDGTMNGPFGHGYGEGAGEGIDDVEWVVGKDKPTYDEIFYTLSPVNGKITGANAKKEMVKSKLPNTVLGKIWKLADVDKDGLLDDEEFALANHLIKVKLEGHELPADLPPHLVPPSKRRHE
B2: EH domain-containing protein 1 (Homo sapiens), Q9H4M9 (parent)
chain: B1 partner

Variants of: B1
Conditions: with ehd1_human EHD1, Q9H4M9

| effect of a mutation on the interaction | Variant |
| --- | --- |
| disrupting interaction | N425A;F427A |

Variants of: B1
Conditions: with ehd1_human EHD1, Q9H4M9
Remark: another data set of the same source

| effect of a mutation on the interaction | Variant |
| --- | --- |
| decreasing interaction | N425A;F427A |

Variants of: B2
Conditions: with milk1_human MICALL1, Q8N3F8

| effect of a mutation on the interaction | Variant |
| --- | --- |
| with no effect | MFSWVSKDARRKKEPELFQTVAEGLRQLYAQKLLPLEEHYRFHEFHSPALEDADFDNKPMVLLVGQYSTGKTTFIRHLIEQDFPGMRIGPEPTTDSFIAVMHGPTEGVVPGNALVVDPRRPFRKLNAFGNAFLNRFMCAQLPNPVLDSISIIDTPGILSGEKQRISRGYDFAAVLEWFAERVDRIILLFDAHKLDISDEFSEVIKALKNHEDKIRVVLNKADQIETQQLMRVYGALMWSLGKIINTPEVVRVYIGSFWSHPLLIPDNRKLFEAEEQDLFKDIQSLPRNAALRKLNDLIKRARLAKVHAYIISSLKKEMPNVFGKESKKKELVNNLGEIYQKIEREHQISPGDFPSLRKMQELLQTQDFSKFQALKPKLLDTVDDMLANDIARLMVMVRQEESLMPSQVVKGGAFDGTMNGPFGHGYGEGAGEGIDDVEWVVGKDKPTYDEIFYTLSPVNGKITGANAKKEMVKSKLPNTVLGEIWKLADVDKDGLLDDEEFALANHLIKVKLEGHELPADLPPHLVPPSKRRHE [K483E] |
